According to paper PMC12124961:

Legend:
[1] = molecular target: Bxb1 gp19, tail tube protein (Mycobacteriophage Bxb1); assay: cryo-EM structure
[2] = molecular target: Bxb1 gp31, tail wing arm (Mycobacteriophage Bxb1); assay: cryo-EM structure

“Bxb1 gp19, tail tube protein (natural protein)” was tested, and the stoichiometry N [1] was 6.

Work on “Bxb1 gp31, tail wing arm (natural protein)” yielded a stoichiometry N [2] of 2.
